Our source for the Kd, koff and kon values is patent US20100260668A1 (published 2010).

A word on the Kd: it is the concentration at which binding is half-saturated. For orientation: koff means the rate constant with which the complex falls apart. A higher koff goes with fast dissociation. Broadly, the kon is a measure of how fast the partners come together. A lower kon goes with slower complex formation.

B1: DVD489 (bispecific antibody, human IgG1, kappa, L234A L235A)
heavy: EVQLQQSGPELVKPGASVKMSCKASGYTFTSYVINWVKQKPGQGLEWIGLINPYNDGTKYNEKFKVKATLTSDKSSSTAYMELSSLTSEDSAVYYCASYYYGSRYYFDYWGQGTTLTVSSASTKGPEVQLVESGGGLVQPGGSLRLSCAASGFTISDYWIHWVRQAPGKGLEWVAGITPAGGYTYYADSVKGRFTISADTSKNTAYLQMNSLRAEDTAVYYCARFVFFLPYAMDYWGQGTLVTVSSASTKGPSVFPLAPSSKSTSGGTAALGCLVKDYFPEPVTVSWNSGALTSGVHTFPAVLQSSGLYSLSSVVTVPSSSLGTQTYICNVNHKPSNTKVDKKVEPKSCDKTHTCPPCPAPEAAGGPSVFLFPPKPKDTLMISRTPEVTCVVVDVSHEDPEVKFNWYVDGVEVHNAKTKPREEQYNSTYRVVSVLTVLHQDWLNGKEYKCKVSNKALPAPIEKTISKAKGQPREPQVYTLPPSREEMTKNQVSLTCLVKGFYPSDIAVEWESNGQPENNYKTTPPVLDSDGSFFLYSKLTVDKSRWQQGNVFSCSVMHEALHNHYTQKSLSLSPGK
light: DIQMTQSSSYLSVSLGGRVTITCKASDHINNWLAWYQQKPGNAPRLLISGATSLETGVPSRFSGSGSGKDYTLSITSLQTEDVATYYCQQYWSIPLTFGAGTKLELKRTVAAPDIQMTQSPSSLSASVGDRVTITCRASQDVSTAVAWYQQKPGKAPKLLIYSASFLYSGVPSRFSGSGSGTDFTLTISSLQPEDFATYYCQQSYTTPPTFGQGTKVEIKRTVAAPSVFIFPPSDEQLKSGTASVVCLLNNFYPREAKVQWKVDNALQSGNSQESVTEQDSKDSTYSLSSTLTLSKADYEKHKVYACEVTHQGLSSPVTKSFNRGEC
notes: HC linker short, LC linker short; also called DVD-Ig DVD489
B2: DVD443 (bispecific antibody, human IgG1, kappa)
heavy: not shown
light: DIVMTQSPDSLAVSLGERATISCRASESVDNYGISFMKWFQQKPGQPPKLLIYAASNQGSGVPDRFSGSGSGTDFTLTISSLQAEDVAVYYCQQSKEVPWTFGGGTKVEIKRTVAAPDIQMTQSPSSLSASVGDRVTITCRASQDVSTAVAWYQQKPGKAPKLLIYSASFLYSGVPSRFSGSGSGTDFTLTISSLQPEDFATYYCQQSYTTPPTFGQGTKVEIKRTVAAPSVFIFPPSDEQLKSGTASVVCLLNNFYPREAKVQWKVDNALQSGNSQESVTEQDSKDSTYSLSSTLTLSKADYEKHKVYACEVTHQGLSSPVTKSFNRGEC
notes: HC linker short, LC linker short; also called DVD-Ig DVD443
B3: DVD455 (bispecific antibody, human IgG1, kappa)
heavy: not shown
light: B2 light
notes: HC linker long, LC linker short; also called DVD-Ig DVD455
B4: DVD495 (bispecific antibody, human IgG1, kappa)
heavy: not shown
light: DIQMTQSSSYLSVSLGGRVTITCKASDHINNWLAWYQQKPGNAPRLLISGATSLETGVPSRFSGSGSGKDYTLSITSLQTEDVATYYCQQYWSIPLTFGAGTKLELKRTVAAPSVFIFPPDIQMTQSPSSLSASVGDRVTITCRASQDVSTAVAWYQQKPGKAPKLLIYSASFLYSGVPSRFSGSGSGTDFTLTISSLQPEDFATYYCQQSYTTPPTFGQGTKVEIKRTVAAPSVFIFPPSDEQLKSGTASVVCLLNNFYPREAKVQWKVDNALQSGNSQESVTEQDSKDSTYSLSSTLTLSKADYEKHKVYACEVTHQGLSSPVTKSFNRGEC
notes: HC linker long, LC linker long; also called DVD-Ig DVD495
B5: DVD513 (bispecific antibody, human IgG1, kappa)
heavy: not shown
light: QAVVTQESALTTSPGETVTLTCRSSTGAVTTSNYANWVQEKPDHLFTGLIGGTNNRAPGVPARFSGSLIGDKAALTITGAQTEDEAIYFCALWYSNHWVFGGGTKLTVLGQPKAAPDIQMTQSPSSLSASVGDRVTITCRASQDVSTAVAWYQQKPGKAPKLLIYSASFLYSGVPSRFSGSGSGTDFTLTISSLQPEDFATYYCQQSYTTPPTFGQGTKVEIKRTVAAPSVFIFPPSDEQLKSGTASVVCLLNNFYPREAKVQWKVDNALQSGNSQESVTEQDSKDSTYSLSSTLTLSKADYEKHKVYACEVTHQGLSSPVTKSFNRGEC
notes: HC linker short, LC linker short; also called DVD-Ig DVD513
B6: DVD525 (bispecific antibody, human IgG1, kappa)
heavy: not shown
light: B5 light
notes: HC linker long, LC linker short; also called DVD-Ig DVD525
B7: DVD519 (bispecific antibody, human IgG1, kappa, lambda)
heavy: not shown
light: QAVVTQESALTTSPGETVTLTCRSSTGAVTTSNYANWVQEKPDHLFTGLIGGTNNRAPGVPARFSGSLIGDKAALTITGAQTEDEAIYFCALWYSNHWVFGGGTKLTVLGQPKAAPSVTLFPPDIQMTQSPSSLSASVGDRVTITCRASQDVSTAVAWYQQKPGKAPKLLIYSASFLYSGVPSRFSGSGSGTDFTLTISSLQPEDFATYYCQQSYTTPPTFGQGTKVEIKRTVAAPSVFIFPPSDEQLKSGTASVVCLLNNFYPREAKVQWKVDNALQSGNSQESVTEQDSKDSTYSLSSTLTLSKADYEKHKVYACEVTHQGLSSPVTKSFNRGEC
notes: HC linker long, LC linker long; also called DVD-Ig DVD519
B8: DVD531 (bispecific antibody, human IgG1, kappa, lambda)
heavy: not shown
light: B7 light
notes: HC linker short, LC linker long; also called DVD-Ig DVD531
B9: DVD449 (bispecific antibody, human IgG1, kappa)
heavy: not shown
light: DIVMTQSPDSLAVSLGERATISCRASESVDNYGISFMKWFQQKPGQPPKLLIYAASNQGSGVPDRFSGSGSGTDFTLTISSLQAEDVAVYYCQQSKEVPWTFGGGTKVEIKRTVAAPSVFIFPPDIQMTQSPSSLSASVGDRVTITCRASQDVSTAVAWYQQKPGKAPKLLIYSASFLYSGVPSRFSGSGSGTDFTLTISSLQPEDFATYYCQQSYTTPPTFGQGTKVEIKRTVAAPSVFIFPPSDEQLKSGTASVVCLLNNFYPREAKVQWKVDNALQSGNSQESVTEQDSKDSTYSLSSTLTLSKADYEKHKVYACEVTHQGLSSPVTKSFNRGEC
notes: HC linker long, LC linker long; also called DVD-Ig DVD449
B10: DVD461 (bispecific antibody, human IgG1, kappa)
heavy: not shown
light: B9 light
notes: HC linker short, LC linker long; also called DVD-Ig DVD461

The assay concerns the target T1, DLL4 ECD His tag (UniProt Q9NR61 27-529, limits assumed).
T1 construct: extracellular domain; also called DLL ECD His tag
Briefly: SPR (Biacore), DVD-Ig captured, DLL4 as analyte. A general note: In SPR one partner is held on a chip, and binding of the other changes the refractive index at the surface.
B1 yielded a Kd of 0.283 nM, a koff of 8.38e-05 s⁻¹ and a kon of 296000 M⁻¹ s⁻¹.

Molecule B2 showed a Kd of 4.11 nM, a koff of 0.000596 s⁻¹ and a kon of 145000 M⁻¹ s⁻¹.

Molecule B3 gave a Kd of 4.7 nM, a koff of 0.000604 s⁻¹ and a kon of 129000 M⁻¹ s⁻¹.

Take B4: the Kd worked out at 0.263 nM, the off-rate (koff) turned out to be 7.91e-05 s⁻¹ and the kon was determined as 301000 M⁻¹ s⁻¹.

Take B5: binding was characterised by a dissociation constant (Kd) of 2.5 nM, the koff was 0.000677 s⁻¹ and the kon was found to be 271000 M⁻¹ s⁻¹.

Molecule B6 had a Kd of 2.57 nM, a koff of 0.00122 s⁻¹ and a kon of 475000 M⁻¹ s⁻¹.

With B7, the affinity, expressed as Kd, was 2.83 nM; the koff was determined as 0.000472 s⁻¹; the kon amounted to 167000 M⁻¹ s⁻¹.

The molecule B8 displayed a dissociation constant (Kd) of 3.47 nM, a koff of 0.000858 s⁻¹ and a kon of 248000 M⁻¹ s⁻¹.

B9 displayed a Kd of 4.81 nM, a koff of 0.000584 s⁻¹ and a kon of 121000 M⁻¹ s⁻¹.

On to B10, for which the Kd amounted to 4.69 nM, the koff was found to be 0.000538 s⁻¹ and the kon came to 115000 M⁻¹ s⁻¹.
